These results are taken from the DeepSol protein solubility set.

This data set is described as follows: soluble on expression in E. coli; label from the status in PepcDB or PDB records.
For the sequence “AIAPRNNKTSLIQKIASQAYATFTNCSSSAIEDNNKVFLEHQADLVALLSDIRAADLKIAPPTKVSTSSPSVPPVTYMHICETDVFSMGVFLLKSGASIPLHDHPGMHGMLKVLYGKVSIRCYDKLDKAESDTERHFDPPLLAFQGDDVRRAALRSSGQFSELSGPCVLSPFKDNLHEIDAVDGAAAFLDILAPPYDPDDGRDCHYYRVLQTAGKKSEQSGDDEAWLLEIPQPDDFWCGGEPYPGPEVTI”, the “soluble on expression in E. coli” value is given as “soluble”.

As for “MALSHSVKERTISENSLIILLQGLQGQITTVDLRDESVARGRIDNVDAFMNIRLANVTYTDRWGHQVELDDLFVTGRNVRYVHIPDGVDITATIEQQLQIIHRVRNFGGKGQGRREFPSKRP”, the “soluble on expression in E. coli” value is on record as “soluble”. Next, “MSLTNYKVVVLDMDDTLLNSDNVISEETANYLTAIQDEGYYVVLASGRPTEGMIPTARDLKLPEHHSYIISYNGSKTINMTNEEVEVSKSIGKQDFDEIVDYCRDRGFFVLTYHDGQIIYDSEHEYMNIEAELTGLPMKRVDDIKAYIQGDVPKVMGVDYVANITEARIDLNGVFNDNVDATTSKPFFLEFMAKDVSKGNAIKALCHKLGYSVDQVIAFGDSMNDKSMFEVAGLAIAMGNASDELKQYADEVTLDHNENGIPHALKKLLEGHHHHHH”: “soluble”; “MMNQLRVTRKEPVKIRIQRKTSQNHAKGIEEMEMAVAVGVKMGQDAVEGNWKRKIIPKKTAIREILKSDEEITVRHLKIGLKSRRLPSCLIRKEPKDNNVSYEETGEGEYFEEENRKNSNNANSSNSRNTGRGNKGGKERESLNDNESSNEETEGRRSVKKTNTLNEDNNGNSIRKESNLSNDEETDEVVDTHRINTEDDEEDEEKPPTEKGTPKRKDRKSDSRSTSKGFGSGGRGRAEYTEDGDDDESNRRSVNFEKDGNGRMVKTETERSSTHAQDYDKKGSKKKKHRVSENGSEEEEVSTSFSSSSSKSSSSSSLSRRTTWDGNNNNTNRRRRNRFD”: “not soluble”. Next, “MSCFRGDVDFCPECGNILPLPSRLNTITCPRCSFKISVQDFTSQVIKSSVMFNPLDQSNVAVGSAEDAELKGPVIDRKCSRCNKEGMVYHTRQMRSADEGQTVFFTCIHCRFQEKEDS”: “not soluble”. Next, “MSSKNTAEVILGGKVIKLGGYESEEYLQRVASYINNKITEFNKEESYRRMSAELRTDMMYLNIADDYFKAKKMADSLSLDIENKDKEIYDLKHELIAAQIKAESSAKEIKELKSEINKYQKNIVKLETELNDSKK”: “soluble”; “EETLLNTKLETADLKWVTFPQVDGQWEELSGLDEEQHSVRTYEVCDVQRAPGQAHWLRTGWVPRRGAVHVYATLRFTMLECLSLPRAGRSCKETFTVFYYESDADTATALTPAWMENPYIKVDTVAAEHLTRKRPGAEATGKVNVKTLRLGPLSKAGFYLAFQDQGACMALLSLHLFYKK”: “soluble”. Turning to “MTFLIPAYNEEKSIGPLIDRIKMLCPDSEIIVVDNNSSDRTSEIATSRGVRVIFEGKQGKANAMVAAFRNTRTEYAVMMDADLTYLPDDSRVLVEVLKAEGADVVLGSRLNGEKEDGAISRINTVGNHILSFTASILYSPVSDVCTGHWAFNRRAIRHILEEGLNYSGFELEAEMFSKLARAGLKIVEVPITYRKRSDEPKLSSFTDGFKIFRTLVLERLRLEHHHHHH”, the “soluble on expression in E. coli” value is given as “not soluble”.

For “MGSDKIHHHHHHAFCLDNGLGRTPPMGWMSWTAFYCEIDCVKHPTGCINEQLYKDMADQLVSGGYDKVGYKSVHIDDCWSEMERDSHGILVANKTRFPSGMKALAKYMHDRGLKFGIYEDYGTKTCGGYPGSYKHEKVDAQTFAAWDVDYLKLDGCNIDQAMMPIGYPLFEKELNETGRPIMYSCSW”, the “soluble on expression in E. coli” value was “not soluble”. Then “MAWLRFFSRTLKSLPQISSSSPNPNPNFRTSPFSTSFLITKTPDKLKKKRKKPESARTKSIQHESTKLPHLESLVSRDAHFRFLIRSKEFISKQPERILRLDDAGKLYRELGFPRGRKVTKFIPKHPLIFQTYRHSDGKIWLGFTEFMEDLLDEEKGLMESMELDRVNCVRKLLMMTKDKRILLSKIHHTRLLFGIPEDFRDRVAKYPDYFRVVTGGDGNRVLELVNWDTNLAHGKELELEEKDTRKLNLLNTFPLVSPYSDGWKLDVWSLEAEKYRVGIVHEFLNLTLEKRASIHHIVEFKDEFSLTRQTYQMLKKQSMSFYLAGTEMNWTVFLKDAYDENGVLVSKDPQVVFNEKLYKYADMQQMEQVG”, with “soluble”.
